Biological target: Chicken CapZ (full length α/β) (chicken, UniProt P13127 1-286; P14315 1-277)
Test: ITC

B1: RavB^108-148 synthetic peptide (peptide)
chain: SKREETKLTHFVRERAQGPRGRRLPAHLQAKIKRVSLDKPH
B1 showed a Kd of 170 nM.

From paper PMC12865202 (2026)
